# Assay results reported in patent US20220074941A1, “HSP90 COMBINATION THERAPY” (Sloan-Kettering Institute for Cancer Research, priority 2011, published 2022).
# B1: FAM115A (protein, UniProt Q9Y4C2 1-921, looked up)
# TRPM8 channel-associated …: MATPSAAFEALMNGVTSWDVPEDAVPCELLLIGEASFPVMVNDMGQVLIAASSYGRGRLVVVSHEDYLVEAQLTPFLLNAVGWLCSSPGAPIGVHPSLAPLAKILEGSGVDAKVEPEVKDSLGVYCIDAYNETMTEKLVKFMKCGGGLLIGGQAWDWANQGEDERVLFTFPGNLVTSVAGIYFTDNKGDTSFFKVSKKMPKIPVLVSCEDDLSDDREELLHGISELDISNSDCFPSQLLVHGALAFPLGLDSYHGCVIAAARYGRGRVVVTGHKVLFTVGKLGPFLLNAVRWLDGGRRGKVVVQTELRTLSGLLAVGGIDTSIEPNLTSDASVYCFEPVSEVGVKELQEFVAEGGGLFVGAQAWWWAFKNPGVSPLARFPGNLLLNPFGISITSQSLNPGPFRTPKAGIRTYHFRSTLAEFQVIMGRKRGNVEKGWLAKLGPDGAAFLQIPAEEIPAYMSVHRLLRKLLSRYRLPVATRENPVINDCCRGAMLSLATGLAHSGSDLSLLVPEIEDMYSSPYLRPSESPITVEVNCTNPGTRYCWMSTGLYIPGRQIIEVSLPEAAASADLKIQIGCHTDDLTRASKLFRGPLVINRCCLDKPTKSITCLWGGLLYIIVPQNSKLGSVPVTVKGAVHAPYYKLGETTLEEWKRRIQENPGPWGELATDNIILTVPTANLRTLENPEPLLRLWDEVMQAVARLGAEPFPLRLPQRIVADVQISVGWMHAGYPIMCHLESVQELINEKLIRTKGLWGPVHELGRNQQRQEWEFPPHTTEATCNLWCVYVHETVLGIPRSRANIALWPPVREKRVRIYLSKGPNVKNWNAWTALETYLQLQEAFGWEPFIRLFTEYRNQTNLPTENVDKMNLWVKMFSHQVQKNLAPFFEAWAWPIQKEVATSLAYLPEWKENIMKLYLLTQMPH
# B2: LTV1 (protein, UniProt Q96GA3 1-475, looked up)
# Protein LTV1 homolog: MPHRKKKPFIEKKKAVSFHLVHRSQRDPLAADESAPQRVLLPTQKIDNEERRAEQRKYGVFFDDDYDYLQHLKEPSGPSELIPSSTFSAHNRREEKEETLVIPSTGIKLPSSVFASEFEEDVGLLNKAAPVSGPRLDFDPDIVAALDDDFDFDDPDNLLEDDFILQANKATGEEEGMDIQKSENEDDSEWEDVDDEKGDSNDDYDSAGLLSDEDCMSVPGKTHRAIADHLFWSEETKSRFTEYSMTSSVMRRNEQLTLHDERFEKFYEQYDDDEIGALDNAELEGSIQVDSNRLQEVLNDYYKEKAENCVKLNTLEPLEDQDLPMNELDESEEEEMITVVLEEAKEKWDCESICSTYSNLYNHPQLIKYQPKPKQIRISSKTGIPLNVLPKKGLTAKQTERIQMINGSDLPKVSTQPRSKNESKEDKRARKQAIKEERKERRVEKKANKLAFKLEKRRQEKELLNLKKNVEGLKL
# B3: TRIPI3 (protein, UniProt Q15645 1-432, looked up)
# Pachytene checkpoint protein …: MDEAVGDLKQALPCVAESPTVHVEVHQRGSSTAKKEDINLSVRKLLNRHNIVFGDYTWTEFDEPFLTRNVQSVSIIDTELKVKDSQPIDLSACTVALHIFQLNEDGPSSENLEEETENIIAANHWVLPAAEFHGLWDSLVYDVEVKSHLLDYVMTTLLFSDKNVNSNLITWNRVVLLHGPPGTGKTSLCKALAQKLTIRLSSRYRYGQLIEINSHSLFSKWFSESGKLVTKMFQKIQDLIDDKDALVFVLIDEVESLTAARNACRAGTEPSDAIRVVNAVLTQIDQIKRHSNVVILTTSNITEKIDVAFVDRADIKQYIGPPSAAAIFKIYLSCLEELMKCQIIYPRQQLLTLRELEMIGFIENNVSKLSLLLNDISRKSEGLSGRVLRKLPFLAHALYVQAPTVTIEGFLQALSLAVDKQFEERKKLAAYI
# B4: APRT (protein, UniProt P07741 2-180, looked up)
# Adenine …: ADSELQLVEQRIRSFPDFPTPGVVFRDISPVLKDPASFRAAIGLLARHLKATHGGRIDYIAGLDSRGFLFGPSLAQELGLGCVLIRKRGKLPGPTLWASYSLEYGKAELEIQKDALEPGQRVVVVDDLLATGGTMNAACELLGRLQAEVLECVSLVELTSLKGREKLAPVPFFSLLQYE
# B5: FIP1L1 (protein, UniProt Q6UN15 1-594, looked up)
# Pre-mRNA 3'-end-processing …: MSAGEVERLVSELSGGTGGDEEEEWLYGGPWDVHVHSDLAKDLDENEVERPEEENASANPPSGIEDETAENGVPKPKVTETEDDSDSDSDDDEDDVHVTIGDIKTGAPQYGSYGTAPVNLNIKTGGRVYGTTGTKVKGVDLDAPGSINGVPLLEVDLDSFEDKPWRKPGADLSDYFNYGFNEDTWKAYCEKQKRIRMGLEVIPVTSTTNKITAEDCTMEVTPGAEIQDGRFNLFKVQQGRTGNSEKETALPSTKAEFTSPPSLFKTGLPPSRNSTSSQSQTSTASRKANSSVGKWQDRYGRAESPDLRRLPGAIDVIGQTITISRVEGRRRANENSNIQVLSERSATEVDNNFSKPPPFFPPGAPPTHLPPPPFLPPPPTVSTAPPLIPPPGFPPPPGAPPPSLIPTIESGHSSGYDSRSARAFPYGNVAFPHLPGSAPSWPSLVDTSKQWDYYARREKDRDRERDRDRERDRDRDRERERTRERERERDHSPTPSVFNSDEERYRYREYAERGYERHRASREKEERHRERRHREKEETRHKSSRSNSRRRHESEEGDSHRRHKHKKSKRSKEGKEAGSEPAPEQESTEATPAE
# B6: SUPV3L1 (protein, UniProt Q8IYB8 23-786, looked up)
# ATP-dependent RNA helicase …: AICSALRPHFGPFPGVLGQVSVLATASSSASGGSKIPNTSLFVPLTVKPQGPSADGDVGAELTRPLDKNEVKKVLDKFYKRKEIQKLGADYGLDARLFHQAFISFRNYIMQSHSLDVDIHIVLNDICFGAAHADDLFPFFLRHAKQIFPVLDCKDDLRKISDLRIPPNWYPDARAMQRKIIFHSGPTNSGKTYHAIQKYFSAKSGVYCGPLKLLAHEIFEKSNAAGVPCDLVTGEERVTVQPNGKQASHVSCTVEMCSVTTPYEVAVIDEIQMIRDPARGWAWTRALLGLCAEEVHLCGEPAAIDLVMELMYTTGEEVEVRDYKRLTPISVLDHALESLDNLRPGDCIVCFSKNDIYSVSRQIEIRGLESAVIYGSLPPGTKLAQAKKFNDPNDPCKILVATDAIGMGLNLSIRRIIFYSLIKPSINEKGERELEPITTSQALQIAGRAGRFSSRFKEGEVTTMNHEDLSLLKEILKRPVDPIRAAGLHPTAEQIEMFAYHLPDATLSNLIDIFVDFSQVDGQYFVCNMDDFKFSAELIQHIPLSLRVRYVFCTAPINKKQPFVCSSLLQFARQYSRNEPLTFAWLRRYIKWPLLPPKNIKDLMDLEAVHDVLDLYLWLSYRFMDMFPDASLIRDLQKELDGIIQDGVHNITKLIKMSETHKLLNLEGFPSGSQSRLSGTLKSQARRTRGTKALGSKATEPPSPDAGELSLASRLVQQGLLTPDMLKQLEKEWMTQQTEHNKEKTESGTHPKGTRRKKKEPDSD
# Key:
# [1] = tested on: Hsp90 complexes in Mia-PaCa-2 cell extract; assay: Nano-LC-MS/MS of PU-beads pull-downs; format: binding, human; conditions: protein identified in PU-beads pull-down of Mia-PaCa-2 cell extract; QSTAR-Elite QTof MS
# Protocol: (§1) Lysates prepared as mentioned above were first pre-cleaned by incubation with control beads overnight at 4° C. […] Beads were washed with lysis buffer, proteins eluted by boiling in 2% SDS, separated on a denaturing gel and Coomassie stained according to manufacturer's procedure (Biorad). […] Analyses of the batch purified pools were done using a QSTAR-Elite hybrid quadrupole time-of-flight mass spectrometer (QTof MS) (AB/MDS Sciex), equipped with a nano spray ion source. Peptide mixtures (in 20 μL) are loaded onto a trapping guard column (0.3×5-mm PepMap C18 100 cartridge from LC Packings) using an Eksigent nano MDLC system (Eksigent Technologies, Inc) at a flow rate of 20 μL/min. […] Electrospray ionization (ESI) needle voltage was set at about 1800 V. The mass analyzer is operated in automatic, data-dependent MS/MS acquisition mode, with the threshold set to 10 counts per second of doubly or triply charged precursor ions selected for fragmentation scans. Survey scans of 0.25 sec are recorded from 400 to 1800 amu; up to 3 MS/MS scans are then collected sequentially for the selected precursor ions, recording from 100 to 1800 amu. The collision energy is automatically adjusted in accordance with the m/z value of the precursor ions selected for MS/MS. Selected precursor ions are excluded from repeated selection for 60 sec after the end of the corresponding fragmentation duty cycle. […] One missed tryptic cleavage site was allowed, precursor ion mass tolerance=0.4 Da fragment ion mass tolerance=0.4 Da, protein modifications were allowed for Met-oxide, Cys-acrylamide and N-terminal acetylation. MudPit scoring was typically applied with ‘require bold red’ activated, and using significance threshold score p<0.05. Unique peptide counts (or ‘spectral counts’) and percent sequence coverages for all identified proteins were exported to Scaffold Proteome Software (version 2_06_01, www.proteomesoftware.com) for further bioinformatic analysis (Table 5a). Using output from Mascot, Scaffold validates, organizes, and interprets mass spectrometry data, allowing more easily to manage large amounts of data, to compare samples, and to search for protein modifications.
# [2] = tested on: Hsp90 complexes in K562 cell extract; assay: Nano-LC-MS/MS of PU-beads pull-downs; format: binding; conditions: protein identified in PU-beads pull-down of K562 cell extract, QSTAR-Elite QTof MS
# Protocol: Protein cargo isolated from cell lysate with PU-beads or control-beads was subjected to proteomic analysis by nano liquid chromatography coupled to tandem mass spectrometry (nano LC-MS/MS). Initial protein identification was performed using the Mascot search engine, and was further evaluated using Scaffold Proteome Software (Tables 5a-d).
# as §1
Molecule,"Number of Assigned Spectra, Mia-Paca 2 [1]","Number of Assigned Spectra, K562 Prep 1 [2]","Number of Assigned Spectra, K562 Prep 2 [2]"
B1,0,9,1
B2,0,5,6
B3,8,3,3
B4,6,0,0
B5,0,6,3
B6,0,8,3
